Assay results as given in patent publication US20220378931A1 (Eli Lilly, published 2022).

What was measured:
rabbit serum albumin = molecular target: T1, rabbit serum albumin (rabbit, UniProt P49065 25-608); test: SPR (Biacore 8K), albumin immobilised, 25 C
T1 construct: bought protein, amine-coupled to a CM5 chip; also called Rabbit SA
Protocol: (§1) Immobilization of serum albumin to a Series S Sensor Chip CM5 surface is performed according to the manufacturer's instructions (Amine Coupling Kit BR-1000-50). Briefly, carboxyl groups on the sensor chip surfaces (flow cell 1 and 2) are activated by injecting 70 μL of a mixture containing 75 mg/ml EDC and 11.5 mg/ml NHS at 10 μL/min. Human, cynomolgus monkey, mouse, rat, pig, dog, cow and rabbit serum albumin are diluted in 10 mM NaOAc pH 4.0 (BR-1003-49) at 1, 1, 3, 1, 1, 1, 1 and 1 μg/mL and then injected over the activated chip surfaces (flow cell 2, […]) at 10 μL/min for 90 sec (human, mouse, rat, pig and cow serum albumin are obtained from Sigma Aldrich (St. Louis, Mo.); cynomolgus monkey serum albumin is obtained from Holzel Diagnostika (Cologne, Germany); dog serum albumin is obtained from Molecular Innovations (Novi, Mich.); and rabbit serum albumin is obtained from Fitzgerald Industries International (Acton, Mass.)). […] Excess reactive groups on the surfaces (flow cell 1 and 2) are deactivated by injecting 70 μL of 1 M ETA HCl—NaOH pH 8.5 at 10 μL/min.
(§2) 150 μL of sample is individually injecting sequentially across the immobilized serum albumins surface and then dissociates for 600 sec at 50 μL/min flow rate at 25° C. The surface is regenerated by injecting 10 mM glycine-HCl pH 1.5 (BR-1003-54) at 50 μL/min for 100 sec. The resulting sensorgrams are analyzed using Biacore 8K Insight Evaluation Software (version 2.0.15.12933) 1:1 binding kinetics or steady-state affinity model fitting to calculate the binding kinetic parameter association rate (ka), dissociation rate (kd), and equilibrium dissociation constant (KD)

[1] = molecular target: T2, human insulin receptor isoform A with C-terminal C9 tag (human, UniProt P06213 28-1382); test: 125I-insulin competition SPA, hIR-A membranes, 0.1% BSA
T2 construct: membranes of stably transfected HEK293 cells; also called hIR-A; human IR-A
Protocol: (§3) The assays are performed with a SPA method using polyvinyltoluene (PVT) wheat germ agglutinin-coupled SPA beads (Perkin Elmer). Assay buffer contains 50 mM Tris-HCl, pH 7.5, 150 mM NaCl and either A) 0.1% w/v fatty-acid free BSA; B) 0.1% w/v fatty-acid free human serum albumin (HSA); C) 0.1% w/v rat serum albumin (RSA); or D) 0.001% Nonidet P-40 Substitute (NP-40, Roche Diagnostics). Ten-point concentration response curves using three-fold serial dilutions of test samples or controls are prepared in Assay Buffer using a Freedom/Evo robot (Tecan).
(§4) Percent specific inhibition (y-axis) is plotted versus the log concentration of compound (x-axis). […] Reported Ki values are shown as the geometric mean with the standard error (Delta Method Standard Error) and the number of independent replicate determinations used to calculate the geometric mean indicated by n.

[2] = molecular target: T2, human insulin receptor isoform A with …; test: 125I-insulin competition SPA, hIR-A membranes, 0.1% HSA
Protocol: as §3, §4

[3] = molecular target: T3, human insulin receptor isoform B with C-terminal C9 tag (human, UniProt P06213 28-1382); test: 125I-insulin competition SPA, hIR-B membranes, 0.1% BSA
T3 construct: membranes of stably transfected HEK293 cells; also called hIR-B; human IR-B
Protocol: as §3, §4

[4] = molecular target: T3, human insulin receptor isoform B with …; test: 125I-insulin competition SPA, hIR-B membranes, 0.1% HSA
Protocol: as §3, §4

human serum albumin = molecular target: T4, human serum albumin (human, UniProt P02768 25-609); test: SPR (Biacore 8K), albumin immobilised, 25 C, 1:1 kinetics
T4 construct: bought protein, amine-coupled to a CM5 chip; also called Human SA; HSA
Protocol: as §1, §2

[5] = molecular target: T5, cynomolgus monkey serum albumin (cynomolgus monkey, UniProt A2V9Z4 25-608); test: as above
T5 construct: bought protein, amine-coupled to a CM5 chip; also called Cyno SA
Protocol: as §1, §2

mouse serum albumin = molecular target: T6, mouse serum albumin (mouse, UniProt P07724 25-608); test: as above
T6 construct: bought protein, amine-coupled to a CM5 chip; also called Mouse SA
Protocol: as §1, §2

rat serum albumin = molecular target: T7, rat serum albumin (rat, UniProt P02770 25-608); test: as above
T7 construct: bought protein, amine-coupled to a CM5 chip; also called Rat SA; RSA
Protocol: as §1, §2

pig serum albumin = molecular target: T8, pig serum albumin (pig, UniProt P08835 25-607); test: as above
T8 construct: bought protein, amine-coupled to a CM5 chip; also called Pig SA
Protocol: as §1, §2

dog serum albumin = molecular target: T9, dog serum albumin (dog, UniProt P49822 25-608); test: as above
T9 construct: bought protein, amine-coupled to a CM5 chip; also called Dog SA
Protocol: as §1, §2

[6] = molecular target: T2, human insulin receptor isoform A with …; test: 125I-insulin competition SPA, hIR-A membranes, 0.001% NP-40
Protocol: as §3, §4

[7] = molecular target: T3, human insulin receptor isoform B with …; test: 125I-insulin competition SPA, hIR-B membranes, 0.001% NP-40
Protocol: as §3, §4

cow serum albumin = molecular target: T10, cow serum albumin (cow, UniProt P02769 25-607); test: SPR (Biacore 8K), albumin immobilised, 25 C, steady-state affinity
T10 construct: bought protein, amine-coupled to a CM5 chip; also called Cow SA; Bovine SA
Protocol: as §1, §2

Row | binding result (rabbit serum albumin) | Ki [1] | Kd (human serum albumin) | koff (human serum albumin) | kon (human serum albumin) | Kd [5] | koff [5] | kon [5] | Kd (mouse serum albumin) | koff (mouse serum albumin) | kon (mouse serum albumin) | Kd (rat serum albumin) | koff (rat serum albumin) | kon (rat serum albumin) | Kd (pig serum albumin) | koff (pig serum albumin) | kon (pig serum albumin) | Kd (dog serum albumin) | koff (dog serum albumin) | kon (dog serum albumin) | Binder | further results
1 | no binding (tested: up to 1000 nM) | 179 nM | 0.74 nM | 0.00013 s⁻¹ | 180000 M⁻¹ s⁻¹ | 4.4 nM | 0.00078 s⁻¹ | 180000 M⁻¹ s⁻¹ | 48 nM | 0.0087 s⁻¹ | 180000 M⁻¹ s⁻¹ | 32 nM | 0.0065 s⁻¹ | 200000 M⁻¹ s⁻¹ | 86 nM | 0.013 s⁻¹ | 150000 M⁻¹ s⁻¹ | 16 nM | 0.0032 s⁻¹ | 190000 M⁻¹ s⁻¹ | INS Analog 29 (other, single-chain insulin B-L2-A-L1-VHH fusion; also called Ex. 29) FVSQHLCGSHLVEALRLVCGERGFHYTPKTGGGGGGGIVEQCCHSICSLYQLENYCGGGGGQGGGGQGGGGQGGGGQGGGGQEVQLLESGGGLVQPGGSLRLSCAASGRYIDETAVAWFRQAPGKEREFVAGIGGGVDITYYADSVKGRFTISRDNSKNTLYLQMNSLRPEDTAVYYCAARPGRPLITSKVADLYPYWGQGTLVTVSSPP | Ki [2]: 28.2 nM; Ki [3]: 124 nM; Ki [4]: 38.1 nM; Ki [6]: 34 nM; Ki [7]: 62.5 nM; Kd (cow serum albumin): 380 nM
2 | no binding (tested: up to 1000 nM) | 103 nM | 0.75 nM | 0.00013 s⁻¹ | 170000 M⁻¹ s⁻¹ | 4.7 nM | 0.00078 s⁻¹ | 170000 M⁻¹ s⁻¹ | 45 nM | 0.0079 s⁻¹ | 170000 M⁻¹ s⁻¹ | 32 nM | 0.0061 s⁻¹ | 190000 M⁻¹ s⁻¹ | 90 nM | 0.01 s⁻¹ | 120000 M⁻¹ s⁻¹ | 17 nM | 0.003 s⁻¹ | 180000 M⁻¹ s⁻¹ | INS Analog 27 (other, single-chain insulin B-L2-A-L1-VHH fusion; also called Ex. 27) FVSQHLCGSHLVEALRLVCGERGFFYTPKTGGGGGGGIVEQCCHSICSLYQLENYCGGGGGQGGGGQGGGGQGGGGQGGGGQEVQLLESGGGLVQPGGSLRLSCAASGRYIDETAVAWFRQAPGKEREFVAGIGGGVDITYYADSVKGRFTISRDNSKNTLYLQMNSLRPEDTAVYYCAARPGRPLITSKVADLYPYWGQGTLVTVSSPP | Ki [6]: 50.5 nM; Kd (cow serum albumin): 390 nM
3 | no binding (tested: up to 1000 nM) | 127 nM | 0.73 nM | 0.00011 s⁻¹ | 160000 M⁻¹ s⁻¹ | 4.3 nM | 0.00069 s⁻¹ | 160000 M⁻¹ s⁻¹ | 39 nM | 0.0071 s⁻¹ | 190000 M⁻¹ s⁻¹ | 30 nM | 0.0051 s⁻¹ | 170000 M⁻¹ s⁻¹ | 80 nM | 0.0092 s⁻¹ | 110000 M⁻¹ s⁻¹ | 13 nM | 0.0022 s⁻¹ | 170000 M⁻¹ s⁻¹ | INS Analog 30 (other, single-chain insulin B-L2-A-L1-VHH fusion; also called Ex. 30) FVSQHLCGSHLVEALRLVCGERGFHYTPKTGGGGGGGIVEQCCHSICSLYQLENYCGPGPQPGPQPGPQPGPQPGPQPGPQPGPQPGPQEVQLLESGGGLVQPGGSLRLSCAASGRYIDETAVAWFRQAPGKEREFVAGIGGGVDITYYADSVKGRFTISRDNSKNTLYLQMNSLRPEDTAVYYCAARPGRPLITSKVADLYPYWGQGTLVTVSSPP | Ki [2]: 17.2 nM; Ki [3]: 100 nM; Ki [4]: 24.5 nM; Ki [6]: 49.3 nM; Ki [7]: 60 nM; Kd (cow serum albumin): 370 nM
4 | no binding (tested: up to 1000 nM) | 71 nM | 0.73 nM | 0.00012 s⁻¹ | 160000 M⁻¹ s⁻¹ | 4.1 nM | 0.00067 s⁻¹ | 170000 M⁻¹ s⁻¹ | 37 nM | 0.006 s⁻¹ | 160000 M⁻¹ s⁻¹ | 26 nM | 0.0048 s⁻¹ | 180000 M⁻¹ s⁻¹ | 75 nM | 0.0084 s⁻¹ | 110000 M⁻¹ s⁻¹ | 12 nM | 0.0021 s⁻¹ | 170000 M⁻¹ s⁻¹ | INS Analog 28 (other, single-chain insulin B-L2-A-L1-VHH fusion; also called Ex. 28) FVSQHLCGSHLVEALRLVCGERGFFYTPKTGGGGGGGIVEQCCHSICSLYQLENYCGPGPQPGPQPGPQPGPQPGPQPGPQPGPQPGPQEVQLLESGGGLVQPGGSLRLSCAASGRYIDETAVAWFRQAPGKEREFVAGIGGGVDITYYADSVKGRFTISRDNSKNTLYLQMNSLRPEDTAVYYCAARPGRPLITSKVADLYPYWGQGTLVTVSSPP | Ki [6]: 32.7 nM; Kd (cow serum albumin): 400 nM
5 | no binding (tested: up to 1000 nM) | 389 nM | 0.49 nM | 9.4e-05 s⁻¹ | 190000 M⁻¹ s⁻¹ | 3.9 nM | 0.00069 s⁻¹ | 180000 M⁻¹ s⁻¹ | 35 nM | 0.0069 s⁻¹ | 200000 M⁻¹ s⁻¹ | 32 nM | 0.0056 s⁻¹ | 170000 M⁻¹ s⁻¹ | 87 nM | 0.0098 s⁻¹ | 110000 M⁻¹ s⁻¹ | 13 nM | 0.0023 s⁻¹ | 170000 M⁻¹ s⁻¹ | INS Analog 26 (other, single-chain insulin B-L2-A-L1-VHH fusion; also called Ex. 26) FVSQHLCGSHLVEALRLVCGERGFFYTPKTGGGGGGGIVEQCCTSICSLYQLENYCGPGPQPGPQPGPQPGPQPGPQPGPQPGPQPGPQEVQLLESGGGLVQPGGSLRLSCAASGRYIDETAVAWFRQAPGKEREFVAGIGGGVDITYYADSVKGRFTISRDNSKNTLYLQMNSLRPEDTAVYYCAARPGRPLITSKVADLYPYWGQGTLVTVSSPP | Ki [2]: 40.6 nM; Ki [3]: 405 nM; Ki [4]: 105 nM; Ki [6]: 105 nM; Ki [7]: 214 nM; Kd (cow serum albumin): 400 nM
6 | no binding (tested: up to 1000 nM) | 56.8 nM | 0.91 nM | 0.00012 s⁻¹ | 140000 M⁻¹ s⁻¹ | 5.5 nM | 0.00075 s⁻¹ | 130000 M⁻¹ s⁻¹ | 49 nM | 0.0073 s⁻¹ | 150000 M⁻¹ s⁻¹ | 40 nM | 0.0057 s⁻¹ | 140000 M⁻¹ s⁻¹ | 100 nM | 0.011 s⁻¹ | 100000 M⁻¹ s⁻¹ | 16 nM | 0.0024 s⁻¹ | 150000 M⁻¹ s⁻¹ | INS Analog 24 (other, single-chain insulin B-L2-A-L1-VHH fusion; also called Ex. 24) FVSQHLCGSHLVEALHLVCGERGFHYTPKTGGGGGGGIVEQCCHSICSLEQLENYCGPGPQPGPQPGPQPGPQPGPQPGPQPGPQPGPQEVQLLESGGGLVQPGGSLRLSCAASGRYIDETAVAWFRQAPGKEREFVAGIGGGVDITYYADSVKGRFTISRDNSKNTLYLQMNSLRPEDTAVYYCAARPGRPLITSKVADLYPYWGQGTLVTVSSPP | Ki [6]: 21.8 nM; Kd (cow serum albumin): 430 nM
